Measurements published in patent publication US20200299341A1 (SOCIETE DE COMMERCIALISATION DES PRODUITS DE LA RECHERCHE …, published 2020).

Target: the molecule itself
Experiment: CD thermal denaturation at 222 nm, 16 uM, homodimer
Protocol: 16 μM of Mad1*DN, Mad1*DN-KR and/or Max* diluted in Phosphate buffer (50 mM) containing 50 mM KCl and 0.5 mM TCEP were subjected to temperature increase as the dichroic signal corresponding to α-Helical signal (222 nm) was recorded. Individual denaturation curves for each protein was recorded. To compare the heterodimeric complex formation, Mad1*DN or Mad1*DN-KR were mixed with Max* at equimolar concentration (16 μM each) in the same buffer adjusted at 1 mM TCEP. The experimental denaturation curves of the complexes (Mad1*DN/Max* or Mad1DN-KR/Max*) were compared to the summation of the individual curves of each homodimer which correspond to an absence of interaction between the two proteins in solution.

B1: Mad1*DN-KR (Mad1 b-HLH-LZ domain with C75S, E77K, G81R, C111S, D112N) (other)
chain: MSRSTHNEMEKNRRAHLRLSLKKLKRLVPLGPESSRHTTLSLLTKAKLHIKKLEDSNRKAVHQVDQLQREQRHLKRQLEKLGGSGC
notes: Engineered variant of the human Mad1 b-HLH-LZ domain; It forms a homodimer alone and a heterodimer with Max*; also called KR analog of Mad1*DN
binding result: binds
